Measurements as given in patent US20080064048A1, “Methods for Selecting Proteins that are Readily Presented as Antigens on Dendritic Cells” (Medical and Biological Laboratories, Co., Ltd., priority 2004, published 2008).

How the values were obtained:
[1] = tested on: DC2.4 cells
Protocol: Intracellular localization of foreign antigens was examined by cell fractionation methods. Chicken ovalbumin (OVA) was used as an antigen model, and DC2.4 (haplotype H-2 Kb), a cultured cell line of mouse dendritic cells, was used as a model for dendritic cells. […] BMDCs with a haplotype of H-2 Kb, the same as that of DC2.4, were used as the control. BMDCs were induced from the bone marrow cells of C57BL/6 mice (SLC) in RPMI-1640 supplemented with 5% FCS using 5 ng/mL GM-CSF (MBL), and those cells purified by magnetic beads after five days of culturing were used.
DC2.4 cells made to take up bOVA antigens were suspended in 10 mM Tris-HCl (pH7.4) containing 250 mM sucrose, this was homogenized using glass beads, centrifuged for 30 minutes at 250,000×g, and then fractionated. The supernatant was used as the soluble fraction; the precipitates were suspended in the same buffer as described above and used as the microsomal fraction. A fixed amount was incubated in the presence or absence of 1% TritonX-100, and together with or without 100 μg mL^−1 trypsin. Before collecting bOVA, soybean trypsin inhibitor (Sigma) was added at 500 μg mL^−1.

[2] = tested on: OT-I CD8+ T cells; test: Antigen presentation level: IL-2 production by OT-I CD8+ T cells (ELISA); type: cell-based, mouse; conditions: DC2.4, dose-response OVA vs bOVA
From the text: Whether knock-down of cellular components involved in ERAD decreases the cross-presentation of exogenous OVA antigen was examined using a system for evaluating the level of antigen presentation, which uses naive CD8^+ T cells from OT-I mice and DC2.4 cells. The DC2.4 cells used as a model of dendritic cells are of the H-2 Kb mouse MHC class I haplotype. OT-I (H-2 Kb) mice are transgenic mice expressing a T cell receptor (TCRα and β) that recognizes an antigenic peptide (SIINFEKL) (SEQ ID NO: 15) derived from OVA presented on the H-2 Kb molecules. The CD8^+ cells of OT-I mice are activated when they recognize OVA peptides presented by BMDCs derived from H-2 Kb mice or by DC2.4 cells. When OVA or bOVA is incubated with and affixed onto DC2.4 cells and the cells are further incubated with naive CD8^+ T cells of OT-I mice, the amount of IL-2 produced by OT-I CD8^+ T cells serves as an index of T-cell stimulation as a result of OVA antigen presented by DC2.4 cells.
Parental or knocked-down DC2.4 cells were pre-incubated in a culture medium supplemented with 50 μg mL^−1 polymyxin B for 30 minutes in the presence or absence of lactacystin or MG-132, and incubated with OVA (250 μg mL^−1) or SIINFEKL (SEQ ID NO: 15) peptides (10 ng mL^−1) for six hours. The cells were washed, fixed with 1% paraformaldehyde, and aliquoted into microtiter plates (5×10^4 per well). 5×10^4 CD8^+ T cells purified from splenocytes of OT-1 mice using magnetic beads were added to each well and after a 24-hour incubation, the IL-2 secretion was measured by ELISA (BD Biosciences) in triplicate. […]

[3] = tested on: DC2.4 cells; test: Polyubiquitination of antigen taken up by DC2.4 cells (Western blot, anti-polyubiquitin antibody); type: cell-based, mouse; conditions: CHIP-knocked-down DC2.4 (C4) vs parental DC2.4
[4] = biological target: T1, Sec61α (Mus musculus, UniProt P61620); test: Co-immunoprecipitation of bOVA with anti-Sec61α; type: binding; conditions: DC2.4 cells incubated with bOVA
T1 construct: endogenous in cells; host or cells: DC2.4 mouse dendritic cell line
Protocol: (§1) 2×10^7 DC2.4 or BMDC cells were cultured for four hours in a medium containing 10 μM MG-132 in the presence of bOVA at 250 μg mL^−1. Cells were lysed in 20 mM HEPES pH7.6 containing 1% digitonin and protease inhibitors to collect biotin-labeled samples. The samples were cleared of impurities in advance using protein G sepharose (Amersham Pharmacia Biotech), and after incubation with antibodies for precipitation (anti-Sec61β, anti Sec61α, anti-VCP, anti-BiP, anti-PDI, anti-calreticulin, anti-TAP1, and anti-TAP2), the immunoprecipitates were collected using protein G. When chicken anti-CHIP antibody was used, immunoprecipitates were collected using a rabbit anti-IgY column (a person, MBL). The precipitated samples were analyzed by SDS-PAGE and Western blotting.

[5] = biological target: T2, TAP1 (Mus musculus, UniProt P21958); test: Co-immunoprecipitation of bOVA with anti-TAP1; type: binding; conditions: DC2.4 cells incubated with bOVA
T2 construct: endogenous in cells; host or cells: DC2.4 mouse dendritic cell line
T2 sequence (P21958 1-724): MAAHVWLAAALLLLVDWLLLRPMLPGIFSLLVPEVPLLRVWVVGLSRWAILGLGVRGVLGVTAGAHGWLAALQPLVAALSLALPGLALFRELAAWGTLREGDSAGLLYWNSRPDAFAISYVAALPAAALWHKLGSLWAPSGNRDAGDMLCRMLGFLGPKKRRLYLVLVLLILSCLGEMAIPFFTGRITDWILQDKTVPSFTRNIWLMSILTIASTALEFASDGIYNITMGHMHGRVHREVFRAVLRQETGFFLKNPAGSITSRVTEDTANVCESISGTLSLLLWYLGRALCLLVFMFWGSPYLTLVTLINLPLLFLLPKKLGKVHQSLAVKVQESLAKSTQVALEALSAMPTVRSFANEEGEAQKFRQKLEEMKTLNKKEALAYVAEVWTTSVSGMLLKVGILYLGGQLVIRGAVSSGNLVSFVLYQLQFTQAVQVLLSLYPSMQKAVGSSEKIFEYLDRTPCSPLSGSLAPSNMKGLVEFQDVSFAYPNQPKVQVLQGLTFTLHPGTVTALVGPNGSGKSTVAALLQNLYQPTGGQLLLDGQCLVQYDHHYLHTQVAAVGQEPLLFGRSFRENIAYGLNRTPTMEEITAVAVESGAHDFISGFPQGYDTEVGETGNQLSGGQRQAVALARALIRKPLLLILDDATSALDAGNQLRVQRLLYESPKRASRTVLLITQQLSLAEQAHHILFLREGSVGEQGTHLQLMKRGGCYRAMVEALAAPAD
Protocol: as §1

[6] = biological target: T3, TAP2 (Mus musculus, UniProt P36371); test: Co-immunoprecipitation of bOVA with anti-TAP2; type: binding; conditions: DC2.4 cells incubated with bOVA
T3 construct: endogenous in cells; host or cells: DC2.4 mouse dendritic cell line
T3 sequence (P36371 1-702): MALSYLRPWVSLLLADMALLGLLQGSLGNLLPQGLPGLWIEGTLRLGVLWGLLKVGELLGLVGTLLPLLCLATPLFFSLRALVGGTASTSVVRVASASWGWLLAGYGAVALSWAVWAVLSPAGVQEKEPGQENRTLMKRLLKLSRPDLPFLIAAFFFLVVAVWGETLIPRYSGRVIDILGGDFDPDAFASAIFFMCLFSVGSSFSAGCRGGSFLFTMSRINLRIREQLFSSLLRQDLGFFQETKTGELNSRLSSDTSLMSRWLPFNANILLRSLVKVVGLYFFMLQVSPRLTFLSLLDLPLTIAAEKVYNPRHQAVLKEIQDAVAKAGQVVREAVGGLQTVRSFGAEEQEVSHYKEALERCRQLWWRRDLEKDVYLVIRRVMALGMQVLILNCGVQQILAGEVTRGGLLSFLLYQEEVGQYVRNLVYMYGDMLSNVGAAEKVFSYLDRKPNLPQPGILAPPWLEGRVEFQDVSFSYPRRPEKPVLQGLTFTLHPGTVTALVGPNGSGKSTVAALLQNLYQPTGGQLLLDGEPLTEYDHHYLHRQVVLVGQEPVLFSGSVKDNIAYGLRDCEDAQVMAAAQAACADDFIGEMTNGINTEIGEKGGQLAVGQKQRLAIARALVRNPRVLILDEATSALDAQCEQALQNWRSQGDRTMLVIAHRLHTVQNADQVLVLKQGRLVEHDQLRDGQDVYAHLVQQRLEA
T3 sequence (P21958 1-724 partner): T2 sequence (P21958 1-724)
Protocol: as §1

[7] = biological target: T4, VCP (Mus musculus, UniProt Q01853); test: Co-immunoprecipitation of bOVA with anti-VCP; type: binding
T4 construct: endogenous in cells; host or cells: DC2.4 mouse dendritic cell line; bone marrow-derived dendritic cells
T4 sequence (Q01853 2-806 limits assumed): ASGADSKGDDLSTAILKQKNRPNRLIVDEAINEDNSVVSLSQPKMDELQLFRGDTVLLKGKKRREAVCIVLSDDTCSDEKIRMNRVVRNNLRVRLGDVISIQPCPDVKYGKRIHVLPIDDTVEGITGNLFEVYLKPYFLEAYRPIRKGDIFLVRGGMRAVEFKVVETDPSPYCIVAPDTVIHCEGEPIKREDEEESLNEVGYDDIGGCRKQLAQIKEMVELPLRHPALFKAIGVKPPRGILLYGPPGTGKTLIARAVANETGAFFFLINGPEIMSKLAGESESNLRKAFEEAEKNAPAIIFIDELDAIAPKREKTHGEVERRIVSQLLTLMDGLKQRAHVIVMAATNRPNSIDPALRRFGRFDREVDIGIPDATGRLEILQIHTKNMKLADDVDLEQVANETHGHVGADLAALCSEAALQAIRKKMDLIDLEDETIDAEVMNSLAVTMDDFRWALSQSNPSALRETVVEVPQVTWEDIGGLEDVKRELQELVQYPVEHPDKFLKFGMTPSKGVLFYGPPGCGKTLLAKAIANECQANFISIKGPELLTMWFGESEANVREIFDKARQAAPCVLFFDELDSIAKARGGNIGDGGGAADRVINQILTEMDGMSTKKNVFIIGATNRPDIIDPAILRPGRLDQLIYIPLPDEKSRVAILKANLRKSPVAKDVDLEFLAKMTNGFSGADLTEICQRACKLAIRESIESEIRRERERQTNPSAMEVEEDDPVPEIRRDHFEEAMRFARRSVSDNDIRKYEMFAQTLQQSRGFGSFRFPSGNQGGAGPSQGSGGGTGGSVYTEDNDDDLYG
Protocol: as §1

interaction with TAP1 (co-immunoprecipitation) [5]: does not interact
interaction with TAP2 (co-immunoprecipitation) [6]: does not interact
interaction with VCP (co-immunoprecipitation) ([7]; BMDCs): interacts
interaction with VCP (co-immunoprecipitation) ([7]; DC2.4 cells incubated with bOVA): interacts
B1: bOVA: biotin-labeled OVA antigen (protein)
chain: GSIGAASMEFCFDVFKELKVHHANENIFYCPIAIMSALAMVYLGAKDSTRTQINKVVRFDKLPGFGDSIEAQCGTSVNVHSSLRDILNQITKPNDVYSFSLASRLYAEERYPILPEYLQCVKELYRGGLEPINFQTAADQARELINSWVESQTNGIIRNVLQPSSVDSQTAMVLVNAIVFKGLWEKAFKDEDTQAMPFRVTEQESKPVQMMYQIGLFRVASMASEKMKILELPFASGTMSMLVLLPDEVSGLEQLESIINFEKLTEWTSSNVMEERKIKVYLPRMKMEEKYNLTSVLMAMGITDVFSSSANLSGISSAESLKISQAVHAAHAEINEAGREVVGSAEAGVDAASVSEEFRADHPFLFCIKHIATNAVLFFGRCVSP
bOVA taken up by cells recovered as trypsin-resistant bOVA from the microsomal fraction [1]: ≥ 70%
antigenicity for stimulation of CD8+ OT-I T cells (IL-2 production) [2]: equally antigenic
polyubiquitination of bOVA in CHIP-knocked-down cells [3]: 34%
interaction with Sec61α (co-immunoprecipitation) [4]: interacts
